Tested on: MS2 coat protein
Experiment: apparent KD of MS2 coat protein; designed switch direction (-1 OFF switch, 1 ON switch): -1; higher = weaker reporter binding
Summary of the method: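 Designed RNA switches were transcribed on Illumina chips by stalled E. coli RNA polymerase and titrated with SNAP-549-labelled MS2 coat protein from 0.7 or 1.5 nM, doubling to 3 µM. Step length ran from 0.8–1.5 h at the lowest concentration to 10–20 min at the highest. The apparent KD is the median over clusters for each design, from curve-fitted normalised cluster fluorescence.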

[1] = Eterna round: R95, input ligand: microRNA oligo, concentration not stated
[2] = input ligand: microRNA oligo, concentration not stated
[3] = Eterna round: R95, input ligand: FMN 200 uM
[4] = Eterna round: R95, input ligand: none

| Sequence | apparent KD of MS2 coat protein (input ligand: FMN 200 uM) [µM] | apparent KD of MS2 coat protein (input ligand: none) [µM] | apparent KD of MS2 coat protein [1] [µM] | apparent KD of MS2 coat protein [2] [µM] | apparent KD of MS2 coat protein [3] [µM] | apparent KD of MS2 coat protein [4] [µM] |
| --- | --- | --- | --- | --- | --- | --- |
| CCCGUGUGAGGAUAUACUCUAAGCAUUGACAGUUGCUACAGGUAGAAGGCACAUGAGGAUCACCCAUGUCCCGG [EX4 C.13] (Eterna round: R97, puzzle: Exclusion 4) | 0.066 | 0.295 | – | – | – | – |
| AACUCACAUGAGGAUCACCCAUGUGAGGAUAUGGAUUCGCUGGCCGUAGCCAGUGGAUCCAGAAGGCGCAUGAU [JL-ex1-4.10] (Eterna round: R97, puzzle: Exclusion 1) | 0.0231 | 0.0212 | – | – | – | – |
| UUUUAACAUGAGGAUCACCCAUGUGAGGAUAUCGAAAUUUAUAUUUAUAUUAAUUAUUCGAGAAGGCACAUUUU [JMF 85] (puzzle: Exclusion 1) | – | – | 0.131 | – | – | – |
| UAUCUACAUGUAGGAUAUGCGUGGCGAAGCUAUGCAGAAGGACAUGAGGAUCACCCAUGUUUUAGCGUCUGCGUACAGAUGCGU [JL ENG1 1.48] (Eterna round: R96, puzzle: Exclusion NG 1) | 0.149 | 0.0232 | – | 0.0164 | – | – |
| GUUUGACAUGAGGAUCACCCAUGUGAGGAUAUACGAUUAGCUGCUAGGUAGUUAGUAUGUAGAAGGUGCGUGUU [EX1 #69] (Eterna round: R97, puzzle: Exclusion 1) | 0.0979 | 0.117 | – | – | – | – |
| UUAAUGGUUGUGAGGAUAUCGGAUAGAUAGAUAUUCGAGAAGGCACAUGAGGAUCACCCAUGUGUGAUCAGAAA [Brourd's EX4 #61] (Eterna round: R97, puzzle: Brourd's mod of Exclusion 4) | 0.41 | 0.202 | – | – | – | – |
| GAGUGAUGAGGAUAUACAUGAGGAUCACCCAUGUGCUUCAGCUAGGAGACUAGCAUUGGUAGAAGGCAUUACUC [Mod of lroppy 7 - Jieux - Exclusion 3] (Eterna round: R97, puzzle: Exclusion 3) | 0.0901 | 0.0158 | – | – | – | – |
| ACAUGAGGAUCACCCAUGUCUGGCUGGUCUGCUCCGGUUGUUGAGGAUAUAGUUCGGUGUUCGCGCUAGAAGGUGAGGGCUGGA [Aenatbe mod 39] (Eterna round: R96, puzzle: Exclusion NG 3) | 0.26 | 0.176 | – | 0.139 | – | – |
| AUCAGCUCGUGAGGAUAUACAUGAUAGAUCGAUUAAUUAAUUAAUUUAACAUGAGGAUCACCCAUGUAGAAGGCACGAGCUGAU [ENG2/1-A3] (Eterna round: R96, puzzle: Exclusion NG 2) | – | – | – | 0.03 | – | – |
| AGCCACAGAGGAUAUACAUACAUCCAGUGGUUAAGAAUACUACAUGAGGAUCACCCAUGUAGAAGGCUGUGGCA [Omei Ex2 BD B11] (Eterna round: R97, puzzle: Exclusion 2) | 0.108 | 0.0224 | – | – | – | – |
| AGUAGUAGUAUCCGUUCUUACAUGAGGAUCACCCAUGUUUCUAGACGUGCACGCGAUGCUCGUCAGACUACCAGAUG [salish99_TOv1_r3_054] (puzzle: Sensor v3, turn-off variant 1) | – | – | 0.0723 | – | 0.0612 | 0.0689 |
| AGUACUAACACGUGAGUGUUAGUACAAUAAGCUUGUGAAACAUGAGGAUCACCCAUGUCCUCAUAAGCUCGUCUUAU [salish99_TOv2_r3_061] (puzzle: Sensor v3, turn-off variant 2) | – | – | 1.07 | – | 0.0174 | 0.0156 |
| UUAUUAUAUGUAGGAUAUGCAUAUUGUUGUUAUGCAGAAGGACAUGAGGAUCACCCAUGUAUAUUAUUGUUAUGUAUUAUAUAU [Title] (Eterna round: R96, puzzle: Exclusion NG 1) | 0.0647 | 0.0372 | – | 0.0233 | – | – |
| GGAGCCUUAGGAUAUACAUGAGGAUCACCCAUGUGAUGUCGAAGCAAGGGUCUCCUAGGUAGAAGGAAGACAAU [Eternabot (L1) Solution 90] (Eterna round: R97, puzzle: Exclusion 3) | 0.0194 | 0.0179 | – | – | – | – |
| UUAUUUAGUGUGAGGAUAUGCUGGUCCUUGGAUCAGCAGAAGGCACAUGAGGAUCACCCAUGUAAUAUAUUAAU [JL bmx4 3.06] (puzzle: Brourd's mod of Exclusion 4) | – | – | 0.0731 | – | – | – |
| AGUAACUAUCACGAAAGUGAUAGUUACGCAAGCAGUGAAACAUGAGGAUCACCCAUGUCCUCAUUUGCUCGUCUUAU [Sensor 3 - 26] (puzzle: Sensor v3, turn-off variant 2) | – | – | 0.435 | – | 0.0539 | 0.0486 |
| CCAACUCAGGAGGAUAUCUCCGCGAGUUCACGAAGAGAAGGCCUGACAUGAGGAUCACCCAUGUGUCCAUGAGG [Eternabot (Original) Solution 8] (Eterna round: R97, puzzle: Exclusion 6) | 0.106 | 0.0696 | – | – | – | – |
| CUAGCGAGUGUAGGAUAUCGGACUGUUUCAGUCUGAGAAGGACAUGAGGAUCACCCAUGUAUUGCUGCGUGAGUAGCACGCUAG [JL ENG1 3.99] (Eterna round: R96, puzzle: Exclusion NG 1) | 0.0324 | 0.0195 | – | 0.0156 | – | – |
| UGGGAGGGAGGAUAUACGAAAGUUAUUCUCAUGUCAGACCCACAUGAGGAUCACCCAUGUAGAAGGCCCGGGUC [EX2 B.17] (Eterna round: R97, puzzle: Exclusion 2) | 0.358 | 0.203 | – | – | – | – |
| AUUUAGUCAGGAUAUACAUGAGGAUCACCCAUGUAAACUUUUAGUUUAAUUUGAAUGUGUAGAAGGGACAUUUA [Ex3 #46] (Eterna round: R97, puzzle: Exclusion 3) | 0.026 | 0.028 | – | – | – | – |
| AUGAGGUUAGGAUAUACAUGAGGAUCACCCAUGUUGAAAGGAUAGAUAAGAAAAGAUAGUAGAAGGAACAAAGA [JR_Exclu3_Sub052] (puzzle: Exclusion 3) | – | – | 0.0349 | – | 0.0344 | 0.0392 |
| ACAUGUUAUCCAUGAUAUCACAUGAGGAUCACCCAUGUUAUGGCGAUUUUGAGGUGUAAGUUUUUUGCUCGUCUUAU [JR_STOV1_Sub058] (Eterna round: R97, puzzle: Sensor, turn-off variant 1) | 0.0515 | 0.0611 | – | – | – | – |
| GAGGUGUUAGGAUAUCGGAGAUGGAGACCAACGGGAUGAGCCGAGAAGGAACAUGAGGAUCACCCAUGUAGGUG [JR_Exclu4_Sub032] (puzzle: Exclusion 4) | – | – | 0.755 | – | 0.345 | 0.763 |
| AGUAGGAGAGGAUAUACAUGAAGUCGAAAGACUUCGACUCAACAUGAGGAUCACCCAUGUAGAAGGCUCCUACA [Omei Ex2 BD A7] (Eterna round: R97, puzzle: Exclusion 2) | 0.126 | 0.0473 | – | – | – | – |
| AAGAGUGAGCGAGGAUAUUGAUUUUGGCGUAGUCAAGAAGGCGCGUACAUGAGGAUCACCCAUGUGCUCAGAGCGCAAAAGGGU [Gequon] (Eterna round: R96, puzzle: Exclusion NG 1) | 0.208 | 0.0682 | – | 0.0498 | – | – |
| AAUAACAGAGGAUAUACUGUUUUAUGUGUUUGUUGUUUUGAACAUGAGGAUCACCCAUGUAGAAGGCUGAUUAA [JMF 53] (Eterna round: R96, puzzle: Exclusion 2) | 0.0384 | 0.0385 | – | 0.031 | – | – |

Source: the supplement of paper PMC9170038
